Results on one substance are retold here after patent US20140294977A1, “Radiation-Sterilized Biodegradable Drug Delivery Composition” (DURECT CORPORATION, priority 2011, published 2014).

This series is described as follows: Gamma-radiation stability of hGH:protamine powders and SAIB/BB/PLA suspensions by RPLC. Conditions: after gamma irradiation at 15 kGy. The format is physicochemical.

Description: Aliquots of 3 mL each of the bulk hGH solution in buffer from BresaGen were transferred into 5 mL type-Hypak BD glass syringes and lyophilized using the lyophilization cycle provided in Table 1 (optimized for hGH) to fit the steps provided with an FTS lyophilizer, Dura Stop, MP Stoppering Tray Dryer, Stone Ridge, N.Y.
100 mg of BresaGen hGH powder was placed in a 15 mL wide-mouth glass jar. 5.5 mL of 25 mM NH4HCO3 (pH ˜7.5) solution was added and the compound was stirred for 30 min at room temperature, 400 rpm until it became clear. Then 1.02 mL of protamine sulfate solution (conc. 10 mg/mL) was slowly added to form a white precipitate. The resulting suspension was stirred for 30 min to complete the complexation reaction. 0.19 mL of 290 mM sucrose solution was then added while stirring at 400 rpm. When the solution was clear, 15.2 μL of 10% polysorbate 20 solution was added. In powders with methonine formulation, 1 wt %-35 wt % of methionine relative to the total protein weight was added to the complexed suspension. […]
Stability of the above formulations was determined using RPLC analysis. […]

For the substance “control hGH powder: lyophilized human growth hormone powder (BresaGen) without complex, used as control”, the “purity of hGH / impurity peaks in RPLC spectra (FIG. 1)” value is given as “showed an impurity peak around 8.15 min”.
